From patent US20120045773A1, “CELL ADHESION INHIBITOR AND APPLICATIONS THEREOF” (University of Miyazaki, priority 2009, published 2012)

Experiments:
AML1 cell line [1] = assay: Drug resistance assay by WST method with or without osteoblast cell in the medium; format: cell-based, human
Description: Effect of the presence of osteoblast cell on the drug resistance of AML1 cell line derived from human acute myelocytic leukemia (AML) was examined.
Specifically, by WST method, in which water-soluble formazan was produced, viability of AML1 cell line was evaluated under the presence of VP16 (5 μM), a kind of etoposide-based anticancer drug, between the cases of presence and absence of osteoblast cell in culture medium. It should be noted that AML1 cell line is fixed to medium plate through osteoblast cell when the osteoblast cell exists in the medium.
In addition, effect of the presence of the osteoblast cell on the drug resistance of AML1 cell line was examined, when Ara-C, a kind of anticancer drug of […] was used in place of VP16 as the anticancer drug. Specifically, the drug resistance assay was carried out by WST method using the same procedures as the above-mentioned method excepting that Ara-C (1 μg/mL) was used in place of VP16 as the anticancer drug.
Drug resistance assay by WST method was carried out by the same procedures as the above-mentioned Reference Example 5 (in the presence of Ara-C) using each of the above-established AML1 (shEVI1) cell and AML1 (shLuc) cell in place of AML1 cell line.

[2] = test system: genes of various integrin families; assay: Expression of integrin family genes by PCR in HNT34 cell line transfected with shEVI1; format: cell-based, human; conditions: HNT34(shEVI1) vs HNT34(shLuc); transfection with Nucleofector; FIG. 5
Excerpt: (§1) EVI1 expression-inhibited HNT34 cell line (hereinafter, also called “HNT34(shEVI1)”) was established by the transfection of shEVI1, which was used in the above-mentioned Example 1-1, using Nucleofector (produced by Amaxa Biosystems), a gene transfection system, into HNT34 cell line derived from human. In the same way, the cell line transfected with shLuc (hereinafter, also called “HNT34 (shLuc)”) was established. For these cell lines, expression of EVI1 gene and genes of various integrin families were confirmed by the same method as in the Example 1.

[3] = test system: various integrin families including ITGA6 gene and ITGB4 gene; assay: Expression of integrin family and VE cadherin genes by PCR and agarose gel electrophoresis in AML1 cells transduced with shEVI1; format: cell-based, human
Excerpt: (§2) EVI1 expression-inhibited AML1 cell line (hereinafter, also called “AML1 (shEVI1)”) was established by the transfection of shEVI1, which is a short hairpin RNA (shRNA) having cleavage activity of mRNA of EVI1 gene, into the AML1 cell line, which was originated from human acute myelocytic leukemia (AML).
Specifically, at first, shEVI1 (sense strand: […] UUG (SEQ ID No: 7) and antisense strand: […] GAGA (SEQ ID No: 8), which had been disclosed in Oncogene, 2006 Jun. 15; 25 (25): 3565-75), were inserted into pSIREN-RetroQ-ZsGreen vector of RNAi-Ready pSIREN-RetroQ-ZsGreen (produced by Clonetech Laboratories, Inc.) at BamH1-EcoR1 site to prepare a shEVI1 retrovector. After that, 10 μg of the shEVI1 retrovector and 10 μg of p10A1 packaging vector (produced by Clonetech Laboratories, Inc.) were transduced to 293T cell using Hylimax liposome reagent (produced by DOJINDO Laboratories) to prepare a retrovirus containing shEVI1. After that, AML1 (shEVI1) was established by infecting the obtained retrovirus into 10^5 of AML1 cells. It should be noted that as a control cell, the cell (hereinafter, also called “AML1 (shLuc)”) was established by transfecting a control vector (shLuc) attached to RNAi-Ready pSIREN-RetroQ-ZsGreen (produced by Clonetech Laboratories, Inc.) by the same method.
Each cell cultured steadily of the established above mentioned AML1(shEVI1) and AML1(shLuc) was recovered by centrifugation, the medium was removed, and 1 ml of Trizol™ (produced by Invitrogen Corp.) was added. After that, 500 μL of chloroform was added, separated by centrifugation at 15000 rpm for 15 minutes, the upper layer was transferred to another tube, 500 μL of 2-propanol was added, separated by centrifugation at 15000 rpm for 10 minutes, and washed with 80% ethanol. The resultant RNA was dissolved in RNase-free water, the amount of RNA was measured by spectrophotometer at wavelength of 260 nm, and 1 μg of the RNA was transformed to cDNA with reverse transcriptase (superscript 3, produced by Invitrogen Corp.).
Using each of the resultant cDNA as a template, the cDNA was amplified by PCR method, and expression level of the genes was confirmed by agarose gel electrophoresis. Specifically, TaKaRa Extaq (produced by TaKaRaBio Inc.) was used as the polymerase, and PCR Thermal Cycler DICE (produced by TaKaRa Bio Inc.) was used as the PCR equipment. In addition, each cDNA was corrected by β-actin before the amplification by PCR. Base sequences of the primers used in the PCR were as follows;
The ones disclosed in Journal of Biomedical Science (2005)12:803-813.

AML1 cell = assay: Accumulation of AML1 cells in thighbone bone marrow of transplanted NOG mouse (FACS); format: in vivo; conditions: 6 million AML1(shEVI1) cells injected into NOG mouse, bone marrow recovered 1 month after, control AML1(shLuc) printed as (330), FIG. 25
Description: The above-established AML1(shEVI1) cell was transplanted into NOG Mouse™, and accumulation of the AML1(shEVI1) cell into the murine thighbone was examined after the transplantation. Here, NOG mouse is a severe immunodeficient mouse suitable for the preparation of humanized model mouse that is available from the Central Institute for Experimental Animals.
Specifically, 6 million of each of the AML1 (shLuc) cell and the AML1 (shEVI1) cell was injected into NOG mouse through venous artery, and bone marrow of the thighbone was recovered 1 month after. After that, a graph representing the fluorescence intensity in the horizontal axis was prepared by FACS, and analysis was made how frequently cells were distributed from low intensity (peak near to 0) to high fluorescence intensity.

EVI1 gene [4] = assay: EVI1 gene expression by PCR in HNT34 cell line transfected with shEVI1; format: cell-based, human; conditions: HNT34(shEVI1) vs HNT34(shLuc); transfection with Nucleofector; FIG. 5
Excerpt: as §1

HNT34 cell line [5] = assay: Cellular proliferative ability assay of HNT34 cell line (Cell counting kit 8); format: cell-based, human; conditions: HNT34(shEVI1) vs HNT34(shLuc) control cell line; FIG. 7
Description: Cellular proliferative ability was evaluated for the above-mentioned established HNT34(shEVI1) and HNT34(shLuc).
Specifically, cells diluted with RPMI1640/10% FCS were added to each well of a 96-well plate at 1000 cells/100 μL. After that, the cell suspension was incubated at 37° C. for an appropriate time, each 10 μL of Cell counting kit 8 (produced by DOJINDO Laboratories) was added, incubated at 37° C. for 30 minutes, and measurement was carried out at wavelength of 450 nm using a spectrophotometer.

EVI1 gene [6] = assay: EVI1 gene expression by PCR and agarose gel electrophoresis in AML1 cells transduced with shEVI1; format: cell-based, human
Excerpt: as §2
Specifically, at first, shEVI1 (sense strand: […] UUG (SEQ ID No: 7) and antisense strand: […] GAGA (SEQ ID No: 8), which had been disclosed in Oncogene, 2006 Jun. 15; 25 (25): 3565-75), were inserted into pSIREN-RetroQ-ZsGreen vector of RNAi-Ready pSIREN-RetroQ-ZsGreen (produced by Clonetech Laboratories, Inc.) at BamH1-EcoR1 site to prepare a shEVI1 retrovector. […] It should be noted that as a control cell, the cell (hereinafter, also called “AML1 (shLuc)”) was established by transfecting a control vector (shLuc) attached to RNAi-Ready pSIREN-RetroQ-ZsGreen (produced by Clonetech Laboratories, Inc.) by the same method.
Each cell cultured steadily of the established above mentioned AML1(shEVI1) and AML1(shLuc) was recovered by centrifugation, the medium was removed, and 1 ml of Trizol™ (produced by Invitrogen Corp.) was added. […] The resultant RNA was dissolved in RNase-free water, the amount of RNA was measured by spectrophotometer at wavelength of 260 nm, and 1 μg of the RNA was transformed to cDNA with reverse transcriptase (superscript 3, produced by Invitrogen Corp.). […]

HNT34 cell line [7] = assay: Cellular adhesiveness assay of HNT34 cell line; format: cell-based, human; conditions: HNT34(shEVI1) compared with HNT34(shLuc); FIG. 6
Description: (§3) Specifically, 100 μL of 40 times-diluted growth factor reduced matrigel (produced by BD Biosciences) with RPMI1640/10% FCS was added to each well of a 96-well plate, incubated at 4° C. for 6 hours, and washed twice with PBS. The above-mentioned cell was added to each of the wells at 10000 cells/100 μL. After that, the cell was incubated at 37° C. for 2 hours and washed three times with PBS. After that, 90 μL of RPMI1640/10% FCS and 10 μL of Cell counting kit 8 (produced by DOJINDO Laboratories) were added to each well, incubated at 37° C. for 30 minutes and measured at wavelength of 450 nm by a spectrophotometer.
The cellular adhesiveness was evaluated for the above-mentioned established HNT34(shEVI1) and HNT34(shLuc) by the same method as the above-mentioned Example 1-2.

AML1 cell line [8] = assay: Cellular adhesiveness assay of AML1 cell line on matrigel-coated 96-well plate (Cell counting kit 8); format: cell-based, human; conditions: AML1(shITGB4) relative to AML1(shLuc); FIG. 8
Description: Cellular adhesiveness was evaluated for the above-established AML1(shEVI1) (triplicate) and AML1(shLuc).
as §3
Cellular adhesiveness was evaluated for the established above-mentioned AML1(shITGB4) and AML1(shLuc) by the same method as the above-mentioned Example 1-2.

ITGB4 gene = ITGB4 gene expression by PCR in AML1 cell line transfected with shITGB4; format: cell-based, human; conditions: AML1(shITGB4) compared with AML1(shLuc); FIG. 9
Excerpt: ITGB4 expression-inhibited AML1 cell line (hereinafter also called “AML1(shITGB4)”) was established by the transfection of shRNA having an activity of cleaving mRNA of ITGB4 gene (hereinafter also called “shITGB4”) into AML1 cell line by the same method as the above-mentioned Example 2-1. It should be noted that the base sequences of the used shITGB4 were as follows.
Further, expression of ITGB4 gene in AML1 (shITGB4) was confirmed by the same method as the above-mentioned Example 1-1. As a result, as shown in the results of PCR agarose gel electrophoresis in FIG. 9, expression of ITGB4 gene was suppressed in AML1(shITGB4) compared with AML1(shLuc).

[9] = AML1(shEVI1) compared with AML1(shLuc), FIG. 1
[10] = triplicated experiment for AML1(shEVI1), AML1 cell not administered with shLuc or shEVI1 added as a control, FIG. 2

COc1cc([C@@H]2c3cc4c(cc3[C@@H](O[C@@H]3O[C@@H]5CO[C@@H](C)O[C@H]5[C@H](O)[C@H]3O)[C@H]3COC(=O)[C@H]23)OCO4)cc(OC)c1O [VP16]
viability of AML1 cell line in the presence of the drug, osteoblast cell in the medium compared with none (AML1 cell line [1]; VP16 (5 μM), FIG. 18): increase significantly

Nc1ccn([C@@H]2O[C@H](CO)[C@@H](O)[C@@H]2O)c(=O)n1 [Ara-C]
viability of AML1 cell line in the presence of the drug, osteoblast cell in the medium compared with none (AML1 cell line [1]; Ara-C (1 μg/mL), FIG. 19): increase significantly

B1: shEVI1: short hairpin RNA (shRNA) having cleavage activity of mRNA of EVI1 gene; SEQ ID No: 7 and SEQ ID No: 8 (nucleic acid)
chain 1: GAUCUCUCUAAGGCUGAACUAGCAGUUCAAGAGACUGCUAGUUCAGCCUUAGAUUUUUUG
chain 2: AAUUCAAAAAAUCUAAGGCUGAACUAGCAGUCUCUUGAACUGCUAGUUCAGCCUUAGAGA
expression of genes of various integrin families [2]: inhibited | expression of VE cadoherin gene [3, 9]: inhibited | gene expressions of various integrin families including ITGA6 gene and ITGB4 gene [3, 9]: inhibition | expression of VE cadherin genes [3, 10]: inhibition | expression of various integrin families [3, 10]: inhibition | abundance rate of transplanted cells in bone marrow of the thighbone (AML1 cell): 9.5% | expression of the EVI1 gene (EVI1 gene [4]): inhibited | cellular proliferation ability (HNT34 cell line [5]): no significant difference | drug resistance to Ara-C gained by the existence of osteoblast (AML1 cell line [1]; AML1(shEVI1) vs AML1(shLuc), in the presence of Ara-C, FIG. 20): disappeared | EVI1 gene expression (EVI1 gene [6]; [9]): inhibited | EVI1 gene expression (EVI1 gene [6]; [10]): inhibition | decrease of cellular adhesiveness (ratio of the number of adhered cells to the number of total cells) (HNT34 cell line [7]): about 76%

B2: shITGB4: shRNA having an activity of cleaving mRNA of ITGB4 gene; SEQ ID No: 13 and SEQ ID No: 14 (nucleic acid)
chain 1: GAUCUCCGAGUUGCGUGGGGUGUGUCUUCAAGAGAGACACACUCCGUGCAGCUCUUUUUG
chain 2: AAUUCAAAAAGAGCUGCACGGAGUGUGUCUCUCUUGAAGACACACCCCACGCAACUCGGA
cellular adhesiveness (ratio of the number of adhered cells to the number of total cells) (AML1 cell line [8]): decrease nearly to zero | expression of ITGB4 gene (ITGB4 gene): suppressed
